Source: paper PMC5701296, “α-Synuclein-Dependent Calcium Entry Underlies Differential Sensitivity of Cultured SN and VTA Dopaminergic Neurons to a Parkinsonian Neurotoxin” (eNeuro, 2017)

Substrate: CN(C)c1ccc(-c2cc[n+](C)cc2)cc1
Experiment: concentration-dependent fluorescent uptake, Lineweaver-Burk; blocked by nomifensine
Assay type: cell-based, Mus musculus

B1: DA uptake transporter (DAT) (Mus musculus) (protein)
chain: MSKSKCSVGPMSSVVAPAKEPNAVGPREVELILVKEQNGVQLTNSTLINPPQTPVEVQERETWSKKIDFLLSVIGFAVDLANVWRFPYLCYKNGGGAFLVPYLLFMVIAGMPLFYMELALGQFNREGAAGVWKICPVLKGVGFTVILISFYVGFFYNVIIAWALHYFFSSFTMDLPWIHCNNTWNSPNCSDAHSSNSSDGLGLNDTFGTTPAAEYFERGVLHLHQSRGIDDLGPPRWQLTACLVLVIVLLYFSLWKGVKTSGKVVWITATMPYVVLTALLLRGVTLPGAMDGIRAYLSVDFYRLCEASVWIDAATQVCFSLGVGFGVLIAFSSYNKFTNNCYRDAIITTSINSLTSFSSGFVVFSFLGYMAQKHNVPIRDVATDGPGLIFIIYPEAIATLPLSSAWAAVFFLMLLTLGIDSAMGGMESVITGLVDEFQLLHRHRELFTLGIVLATFLLSLFCVTNGGIYVFTLLDHFAAGTSILFGVLIEAIGVAWFYGVQQFSDDIKQMTGQRPNLYWRLCWKLVSPCFLLYVVVVSIVTFRPPHYGAYIFPDWANALGWIIATSSMAMVPIYATYKFCSLPGSFREKLAYAITPEKDRQLVDRGEVRQFTLRHWLLV
notes: native transporter in cultured primary mouse SN and VTA dopaminergic neurons
Km: 16.9 ± 5.5 µM
